Tested on: Escherichia coli TOP10
Test: shrunken log2 fold change of peptide-encoding DNA abundance (4.5 h post-induction vs induction); higher = less antimicrobial activity (less host growth inhibition)
Details: time post-induction: 4.5 h; library: site-saturation at positions 5, 18, 19, 20
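Note: peptides expressed intracellularly from a pBAD plasmid library in pooled LB shake-flask culture, induced with 0.3% L-arabinose, DNA abundance read by NGS, three biological replicates, DESeq2 with apeglm shrinkage.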

Sequence | shrunken log2 fold change
RRIRIRPPRLPRPRPRPIVHPRP | -0.642
RRIRIRPPRLPRPRPRPIWPPRP | 0.155
RRIRIRPPRLPRPRPRPIYKPRP | -0.517
RRIRIRPPRLPRPRPRPIYRPRP | -0.191
RRIRIRPPRLPRPRPRPKADPRP | 0.204
RRIRIRPPRLPRPRPRPKARPRP | -0.0685
RRIRIRPPRLPRPRPRPKAYPRP | -0.124
RRIRIRPPRLPRPRPRPKCRPRP | -0.452
RRIRIRPPRLPRPRPRPKCWPRP | 0.139
RRIRIRPPRLPRPRPRPKGIPRP | -0.13
RRIRIRPPRLPRPRPRPKIVPRP | -0.716
RRIRIRPPRLPRPRPRPKIYPRP | -0.581
RRIRIRPPRLPRPRPRPKKKPRP | -0.442
RRIRIRPPRLPRPRPRPKLYPRP | -0.33
RRIRIRPPRLPRPRPRPKMSPRP | -0.327
RRIRIRPPRLPRPRPRPKPHPRP | -0.0472
RRIRIRPPRLPRPRPRPKRCPRP | -0.00138
RRIRIRPPRLPRPRPRPKRQPRP | 0.174
RRIRIRPPRLPRPRPRPKRRPRP | 0.123
RRIRIRPPRLPRPRPRPKSCPRP | -0.0687
RRIRIRPPRLPRPRPRPKSEPRP | -0.329
RRIRIRPPRLPRPRPRPKSMPRP | -0.208
RRIRIRPPRLPRPRPRPKSNPRP | -0.673
RRIRIRPPRLPRPRPRPKTKPRP | -0.0929
RRIRIRPPRLPRPRPRPKTSPRP | -0.465

Sequence | shrunken log2 fold change
RRIRIRPPRLPRPRPRPKVEPRP | 0.195
RRIRIRPPRLPRPRPRPKVKPRP | -0.127
RRIRIRPPRLPRPRPRPKVMPRP | -0.206
RRIRIRPPRLPRPRPRPKVQPRP | -0.491
RRIRIRPPRLPRPRPRPKWAPRP | -0.105
RRIRIRPPRLPRPRPRPLAHPRP | -0.379
RRIRIRPPRLPRPRPRPLCQPRP | 0.127
RRIRIRPPRLPRPRPRPLEKPRP | -0.0295
RRIRIRPPRLPRPRPRPLEWPRP | -0.0139
RRIRIRPPRLPRPRPRPLFMPRP | -0.756
RRIRIRPPRLPRPRPRPLGIPRP | 0.132
RRIRIRPPRLPRPRPRPLGMPRP | -0.268
RRIRIRPPRLPRPRPRPLGSPRP | -0.41
RRIRIRPPRLPRPRPRPLHGPRP | -0.308
RRIRIRPPRLPRPRPRPLILPRP | -0.895
RRIRIRPPRLPRPRPRPLIQPRP | -1.02
RRIRIRPPRLPRPRPRPLIRPRP | -0.508
RRIRIRPPRLPRPRPRPLKIPRP | 1.44
RRIRIRPPRLPRPRPRPLKNPRP | -0.202
RRIRIRPPRLPRPRPRPLLWPRP | 0.0456
RRIRIRPPRLPRPRPRPLPNPRP | -0.217
RRIRIRPPRLPRPRPRPLQMPRP | -0.264
RRIRIRPPRLPRPRPRPLRFPRP | -0.21
RRIRIRPPRLPRPRPRPLSCPRP | -0.253
RRIRIRPPRLPRPRPRPLTTPRP | -0.148

Sequence | shrunken log2 fold change
RRIRIRPPRLPRPRPRPLVPPRP | -0.33
RRIRIRPPRLPRPRPRPMAEPRP | -0.0152
RRIRIRPPRLPRPRPRPMAIPRP | -0.274
RRIRIRPPRLPRPRPRPMDNPRP | -0.096
RRIRIRPPRLPRPRPRPMEWPRP | -0.00133
RRIRIRPPRLPRPRPRPMFNPRP | -0.923
RRIRIRPPRLPRPRPRPMHDPRP | -0.152
RRIRIRPPRLPRPRPRPMHMPRP | -0.0247
RRIRIRPPRLPRPRPRPMIKPRP | -0.761
RRIRIRPPRLPRPRPRPMLIPRP | -0.21
RRIRIRPPRLPRPRPRPMLQPRP | -0.452
RRIRIRPPRLPRPRPRPMLWPRP | 0.0197
RRIRIRPPRLPRPRPRPMLYPRP | -0.33
RRIRIRPPRLPRPRPRPMMAPRP | 0.0709
RRIRIRPPRLPRPRPRPMMSPRP | -0.00118
RRIRIRPPRLPRPRPRPMNEPRP | 0.0707
RRIRIRPPRLPRPRPRPMPCPRP | 0.00854
RRIRIRPPRLPRPRPRPMQEPRP | -0.2
RRIRIRPPRLPRPRPRPMQIPRP | -0.099
RRIRIRPPRLPRPRPRPMQMPRP | -0.52
RRIRIRPPRLPRPRPRPMRCPRP | -0.0263
RRIRIRPPRLPRPRPRPMTMPRP | -0.01
RRIRIRPPRLPRPRPRPMTSPRP | -0.0513
RRIRIRPPRLPRPRPRPMWNPRP | -0.472
RRIRIRPPRLPRPRPRPNAMPRP | -0.0812
